From patent US20180237508A1 (INTERNATIONA DRUG DEVELOPMENT BIOTECH, published 2018)
Ends that are not written are not given here.

B1: Murine monoclonal antibody D-A10 (antibody, V domains shown)
VH: EVQLLETGGGLVQPGGSRGLSCEGSGFTFSGFWMSWVRQTPGKTLEWIGDINSDGSAIKYAPSIKDRFTIFRDNDKSTLYLQMSNVRSEDTATYFCIAHYSGGGFAYWGQGTSVTVSS
VL: NIVMTQAAPSVPVTPGESVSISCRSSKSLLYSNGNTYLYWFLQRPGQSPQRLIYYMSNLASGVPDRFSGRGSGTDFTLRISRVEAEDVGVYYCMQSLEYPFTFGGGTKLEIK
notes: Murine IgG from a hybridoma, purified from ascitic fluid on protein A; also called mD-A10 Mab; mD-A10
B2: Unconjugated peptide 1 (peptide)
peptide: AEQRGELAIKDANAKLSELEAALQRAKQDC

What was measured:
[1] = target: T1, BSA conjugated peptide 2 (human, BSA coupled at the SH group of the C-terminal cysteine); test: ELISA, coated BSA conjugated peptide
T1 peptide: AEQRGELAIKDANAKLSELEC
Method: (§1) The CK8 peptides, coupled or not with the bovine serum albumin (BSA) at the SH group of the C-terminal cysteine, were immobilized (0.5 μg/ml or 1 μg/ml respectively) at the bottom of the wells of a 96 well plate overnight at room temperature. Unbound peptides are washed away with purified water supplemented by Tween (Sigma, St Quentin Fallavier, France). The wells are then saturated with a saline phosphate buffer solution (PBS) containing 5% BSA for 2 hours at room temperature (RT). Then the plates are washed away with purified water supplemented by Tween. The Mab binding to the coated peptides is tested at different Mab concentrations following an incubation for 2 hours at RT in PBS (Invitrogen, Villebon sur Yvette, France) supplemented by 1% Bovine Serum Albumin (Sigma, St Quentin Fallavier, France). Unbound Mabs are washed away with purified water supplemented by Tween. […] The absorbance is read at 450 nm and corrected at 630 nm. The specific requirements for the different experiments are detailed below.
(§2) Different Mab concentrations (from 10 μg/mL then diluted at 1/10) were incubated for 2 hours at room temperature with either the peptide 1, peptide 2, peptide 3, peptide 4 or peptide 17. The optical density values (OD) was read at 450 nm and corrected at 630 nm.

[2] = target: T2, BSA conjugated peptide 3 (human, also: conjugated to BSA via the thiol of the C-terminal Cys); test: ELISA, coated BSA conjugated peptide
T2 peptide: AALQRAKQDC(BSA)
Method: as §1, §2

[3] = target: T3, BSA conjugated peptide 4 (human, also: conjugated to BSA via the thiol of the C-terminal Cys); test: ELISA, coated BSA conjugated peptide
T3 peptide: SELEAALQRAKQDC(BSA)
Method: as §1, §2

[4] = target: T4, BSA conjugated peptide 17 (human, BSA conjugated (the added cysteine is printed at the N-terminus)); test: ELISA, coated BSA conjugated peptide
T4 peptide: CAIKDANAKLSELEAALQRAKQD
Method: as §1, §2

[5] = target: T5, BSA conjugated peptide 1 (human, BSA coupled at the SH group of the C-terminal cysteine); test: ELISA, coated BSA conjugated peptide
T5 peptide: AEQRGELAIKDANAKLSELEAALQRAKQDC
Method: as §1, §2

[6] = target: T6, Unconjugated peptide 18 (human); test: ELISA, coated unconjugated peptide
T6 peptide: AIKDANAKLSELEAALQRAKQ
Method: as §1
(§3) The unconjugated peptides 1, 5 to 28 of human CK8 were immobilized (2 μg/ml) at the bottom of a 96-wells plate. Different Mab concentrations (from 10 μg/mL then diluted at 1/10) were incubated for 2 hours at room temperature alone or with each peptide tested. The optical density values (OD) was read at 450 nm and corrected at 630 nm. The results are shown in FIG. 13A (related to mD-A10) or on FIG. 13B (related to M20).

[7] = target: T7, Unconjugated peptide 25 (human); test: ELISA, coated unconjugated peptide
T7 peptide: AIKDANAKLSELEA
Method: as §1, §3

[8] = target: B2; test: ELISA, coated unconjugated peptide
Method: as §1, §3

[9] = target: T8, Unconjugated peptide 11 (human); test: ELISA, coated unconjugated peptide
T8 peptide: LSELEAALQRAKQD
Method: as §1, §3

[10] = target: T9, Unconjugated peptide 27 (human); test: ELISA, coated unconjugated peptide
T9 peptide: AIKDANAKLSEL
Method: as §1, §3

[11] = target: T10, Unconjugated peptide 24 (human); test: ELISA, coated unconjugated peptide
T10 peptide: AIKDANAKLSELEAA
Method: as §1, §3

[12] = target: T11, Unconjugated peptide 28 (human); test: ELISA, coated unconjugated peptide
T11 peptide: AIKDANAKLSE
Method: as §1, §3

[13] = target: T12, Unconjugated peptide 9 (human); test: ELISA, coated unconjugated peptide
T12 peptide: ELEAALQRAKQD
Method: as §1, §3

[14] = target: T13, Unconjugated peptide 14 (human); test: ELISA, coated unconjugated peptide
T13 peptide: NAKLSELEAALQRAKQD
Method: as §1, §3

[15] = target: Unconjugated peptide 23 (human); test: ELISA, coated unconjugated peptide
Method: as §1, §3

[16] = target: T14, Unconjugated peptide 22 (human); test: ELISA, coated unconjugated peptide
T14 peptide: AIKDANAKLSELEAALQ
Method: as §1, §3

[17] = target: T15, Unconjugated peptide 6 (human); test: ELISA, coated unconjugated peptide
T15 peptide: AALQRAKQD
Method: as §1, §3

[18] = target: T16, Unconjugated peptide 10 (human); test: ELISA, coated unconjugated peptide
T16 peptide: SELEAALQRAKQD
Method: as §1, §3

[19] = target: T17, Unconjugated peptide 26 (human); test: ELISA, coated unconjugated peptide
T17 peptide: AIKDANAKLSELE
Method: as §1, §3

[20] = target: T18, Unconjugated peptide 16 (human); test: ELISA, coated unconjugated peptide
T18 peptide: DANAKLSELEAALQRAKQD
Method: as §1, §3

[21] = target: T19, Unconjugated peptide 5 (human); test: ELISA, coated unconjugated peptide
T19 peptide: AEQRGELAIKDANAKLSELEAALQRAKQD
Method: as §1, §3

[22] = target: T20, Unconjugated peptide 7 (human); test: ELISA, coated unconjugated peptide
T20 peptide: EAALQRAKQD
Method: as §1, §3

[23] = target: T21, Unconjugated peptide 15 (human); test: ELISA, coated unconjugated peptide
T21 peptide: ANAKLSELEAALQRAKQD
Method: as §1, §3

[24] = target: T22, Unconjugated peptide 17 (human); test: ELISA, coated unconjugated peptide
T22 peptide: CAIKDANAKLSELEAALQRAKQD
Method: as §1, §3

[25] = target: T23, Unconjugated peptide 8 (human); test: ELISA, coated unconjugated peptide
T23 peptide: LEAALQRAKQD
Method: as §1, §3

[26] = target: T24, Unconjugated peptide 21 (human); test: ELISA, coated unconjugated peptide
T24 peptide: AIKDANAKLSELEAALQR
Method: as §1, §3

[27] = target: T25, Unconjugated peptide 13 (human); test: ELISA, coated unconjugated peptide
T25 peptide: AKLSELEAALQRAKQD
Method: as §1, §3

[28] = target: T26, Unconjugated peptide 20 (human); test: ELISA, coated unconjugated peptide
T26 peptide: AIKDANAKLSELEAALQRA
Method: as §1, §3

[29] = target: T27, Unconjugated peptide 12 (human); test: ELISA, coated unconjugated peptide
T27 peptide: KLSELEAALQRAKQD
Method: as §1, §3

[30] = target: T28, Unconjugated peptide 19 (human); test: ELISA, coated unconjugated peptide
T28 peptide: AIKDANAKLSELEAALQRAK
Method: as §1, §3

[31] = target: B1; test: flow cytometry competition, free peptide against biotinylated antibody on Isreco-1 cells
Method: 2.10⁵ Isreco-1 cells per 96-wells were incubated with a biotinylated antibody anti-CK8 (12.5 μg/mL) with or without peptide 1 or peptide 2 tested at different concentrations and incubated at 4° C. for 30 min. Unbound antibody was washed away with PBS (Invitrogen, Villebon sur Yvette, France) supplemented by 1% Bovine Serum Albumin (Sigma, St Quentin Fallavier, France). Subsequently, cells were centrifuged (5 min at 400 g) and bound antibody was detected with Phycoerythrin conjugated Streptavidin (Interchim, Montlucon, France) at 4° C. for 30 min. Detection reagent was washed away and cells were centrifuged (5 min at 400 g) and suspended in 300 μL PBS. Bound detection antibody was quantified on a FACS CAN (BD Biosciences, Rungis, France), (FL2 channel, 2 000 events per acquisition). During the experiment, the respective isotype controls were included to exclude any unspecific binding events. The presence of peptide 1 inhibits cell labelling with the mD-D6 or mD-A10 Mab without any significant impact on M20 Mab cellular staining.

## B1
[1]
  binding result: no binding (tested: from 10 ug/mL then diluted at 1/10)
[2]
  binding result: no binding (tested: from 10 ug/mL then diluted at 1/10)
[3]
  binding result: binds
[4]
  binding result: binds
[5]
  binding result: binds
[6]
  binding result: binds
[7]
  binding result: no binding (tested: from 10 ug/mL then diluted at 1/10)
[8]
  binding result: binds
[9]
  binding result: binds
[10]
  binding result: no binding (tested: from 10 ug/mL then diluted at 1/10)
[11]
  binding result: no binding (tested: from 10 ug/mL then diluted at 1/10)
[12]
  binding result: no binding (tested: from 10 ug/mL then diluted at 1/10)
[13]
  binding result: no binding (tested: from 10 ug/mL then diluted at 1/10)
[14]
  binding result: binds
[15]
  binding result: binds
[16]
  binding result: binds
[17]
  binding result: no binding (tested: from 10 ug/mL then diluted at 1/10)
[18]
  binding result: no binding (tested: from 10 ug/mL then diluted at 1/10)
[19]
  binding result: no binding (tested: from 10 ug/mL then diluted at 1/10)
[20]
  binding result: binds
[21]
  binding result: binds
[22]
  binding result: no binding (tested: from 10 ug/mL then diluted at 1/10)
[23]
  binding result: binds
[24]
  binding result: binds
[25]
  binding result: no binding (tested: from 10 ug/mL then diluted at 1/10)
[26]
  binding result: binds
[27]
  binding result: binds
[28]
  binding result: binds
[29]
  binding result: binds
[30]
  binding result: binds

## B2
[31]
  binding result: binds
